Four molecules from article PMC3675483 (Nucleic Acids Research, 2013) can be followed below.

Data set [1] concerns the target Schmallenberg virus (SBV) nucleocapsid (N) protein (Schmallenberg virus). The data set can be described thus: crystal structure.
Data set [2] has the same target. Description: SEC.
For data set [3] the target is unchanged. Description: negative-stain electron microscopy with single-particle averaging.
Data set [4] has as its target Selenomethionine-substituted SBV N protein (Schmallenberg virus). The data set can be described thus: crystal structure.
The data set “SEC” concerns the molecule itself. The data set can be described thus: SEC.
Data set [5] addresses BUNV N (nucleocapsid) wild type (Bunyamwera virus, UniProt P16495 1-233). Description: fluorescence polarization.
For data set [6], the target named is T1, SBV N (nucleocapsid) wild type (Schmallenberg virus isolate BH80/11-1, UniProt H2AM13 1-233).
T1 sequence: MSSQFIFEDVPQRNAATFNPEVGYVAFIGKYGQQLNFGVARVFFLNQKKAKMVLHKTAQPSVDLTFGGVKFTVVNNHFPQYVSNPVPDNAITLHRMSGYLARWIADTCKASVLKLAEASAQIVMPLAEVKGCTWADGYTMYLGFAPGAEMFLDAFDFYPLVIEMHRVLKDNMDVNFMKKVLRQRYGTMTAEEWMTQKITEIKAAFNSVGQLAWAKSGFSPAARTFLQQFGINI
The data set can be described thus: fluorescence polarization.

As to “Schmallenberg virus (SBV) nucleocapsid (N) protein (natural protein)”, the stoichiometry N in data set [1], in data set [2] and in data set [3] was 4 each time.

The molecule “Selenomethionine-substituted SBV N protein (natural protein)” gave a stoichiometry N in data set [4] of 4.

B1: Bunyamwera virus (BUNV) nucleocapsid (N) protein (natural protein)
chain: MIELEFHDVAANTSSTFDPEVAYANFKRVHTTGLSYDHIRIFYIKGREIKTSLAKRSEWEVTLNLGGWKITVYNTNFPGNRNNPVPDDGLTLHRLSGFLARYLLEKMLKVSEPEKLIIKSKIINPLAEKNGITWNDGEEVYLSFFPGSEMFLGTFRFYPLAIGIYKVQRKEMEPKYLEKTMRQRYMGLEAATWTVSKLTEVQSALTVVSSLGWKKTNVSAAARDFLAKFGINM
Regarding B1, the “stoichiometry N” value in “SEC” came to 4.

B2: BUNV48AG (ssRNA)
RNA: AGUAGUGUACUCCACACUACAAACUUGCUAUUGUUGAAAAUCGCUGUG
On to B2, for which the Kd in data set [5] came to 62.9 ± 5 nM; in data set [6] it was 21.3 ± 1 nM.
